Reference: article PMC5745072

Assay: Hampton Screens I and II, vapor diffusion
Conditions: glycan lost; control: glycosylated GOx from P. pastoris

B1: Glucose oxidase (GOx), mutants A2 and F9: Endo H (protein)
parent chain: MQTLLVSSLVVSLAAALPHYIRSNGIEASLLTDPKDVSGRTVDYIIAGGGLTGLTTAARLTENPNISVLVIESGSYESDRGPIIEDLNAYGDIFGSSVDHAYETVELATNNQTALIRSGNGLGGSTLVNGGTWTRPHKAQVDSWETVFGNEGWNWDNVAAYSLQAERARAPNAKQIAAGHYFNASCHGVNGTVHAGPRDTGDDYSPIVKALMSAVEDRGVPTKKDFGCGDPHGVSMFPNTLHEDQVRSDAAREWLLPNYQRPNLQVLTGQYVGKVLLSQNGTTPRAVGVEFGTHKGNTHNVYAKHEVLLAAGSAVSPTILEYSGIGMKSILEPLGIDTVVDLPVGLNLQDQTTATVRSRITSAGAGQGQAAWFATFNETFGDYSEKAHELLNTKLEQWAEEAVARGGFHNTTALLIQYENYRDWIVNHNVAYSELFLDTAGVASFDVWDLLPFTRGYVHILDKDPYLHHFAYDPQYFLNELDLLGQAAATQLARNISNSGAMQTYFAGETIPGDNLAYDADLSAWTEYIPYHFRPNYHGVGTCSMMPKEMGGVVDNAARVYGVQGLRVIDGSIPPTQMSSHVMTVFYAMALKISDAILEDYASMQ
other: crystallisability: increases
